The results in this text go back to patent US20230172982A1.

In this test the target is CD20, on SUP-B15 CD20+ cells (UniProt P11836). The test is described as follows: cell-based or functional assay.
Sequence of UniProt P11836 (P11836 whole entry): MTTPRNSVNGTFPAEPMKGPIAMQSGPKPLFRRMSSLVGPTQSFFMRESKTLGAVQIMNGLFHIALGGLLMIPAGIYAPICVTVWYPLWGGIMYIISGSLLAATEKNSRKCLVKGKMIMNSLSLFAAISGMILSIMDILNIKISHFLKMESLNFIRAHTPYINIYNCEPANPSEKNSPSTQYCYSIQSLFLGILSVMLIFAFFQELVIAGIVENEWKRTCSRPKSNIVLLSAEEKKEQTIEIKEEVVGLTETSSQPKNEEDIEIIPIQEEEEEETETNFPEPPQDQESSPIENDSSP

As to rituximab (antibody), the ADCC by polyclonal BCMA.CAR t-haNK cells (quadracistronic) amounted to 60% and the ADCC by polyclonal BCMA.CAR t-haNK cells (tricistronic) came to 55%.
